The numbers were not newly measured in paper PMC3432731, which cites them from elsewhere.

This series deals with Cyclin A (Homo sapiens) (UniProt P20248).
Sequence of UniProt P20248 (P20248 whole entry): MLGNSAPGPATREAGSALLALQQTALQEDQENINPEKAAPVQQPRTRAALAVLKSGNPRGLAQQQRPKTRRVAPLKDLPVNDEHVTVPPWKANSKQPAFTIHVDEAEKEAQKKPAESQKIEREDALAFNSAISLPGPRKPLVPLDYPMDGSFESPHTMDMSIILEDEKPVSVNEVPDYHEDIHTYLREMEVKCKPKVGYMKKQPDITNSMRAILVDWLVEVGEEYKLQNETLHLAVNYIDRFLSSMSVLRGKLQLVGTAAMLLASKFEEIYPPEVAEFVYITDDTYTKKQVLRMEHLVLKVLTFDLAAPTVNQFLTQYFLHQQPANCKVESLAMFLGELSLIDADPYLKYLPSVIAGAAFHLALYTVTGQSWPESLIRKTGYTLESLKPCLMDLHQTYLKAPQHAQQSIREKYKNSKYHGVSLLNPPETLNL

As for p27 (from UniProt P46527), the Kd (commonly the equilibrium constant for the complex coming apart) was 25 nM.
